Laboratory results: IntAct's records for PubMed 20018686

B1: Serine/threonine-protein kinase BIK1 (Arabidopsis thaliana (Mouse-ear cress)), O48814 (parent)
chain: MGSCFSSRVKADIFHNGKSSDLYGLSLSSRKSSSTVAAAQKTEGEILSSTPVKSFTFNELKLATRNFRPDSVIGEGGFGCVFKGWLDESTLTPTKPGTGLVIAVKKLNQEGFQGHREWLTEINYLGQLSHPNLVKLIGYCLEDEHRLLVYEFMQKGSLENHLFRRGAYFKPLPWFLRVNVALDAAKGLAFLHSDPVKVIYRDIKASNILLDADYNAKLSDFGLARDGPMGDLSYVSTRVMGTYGYAAPEYMSSGHLNARSDVYSFGVLLLEILSGKRALDHNRPAKEENLVDWARPYLTSKRKVLLIVDNRLDTQYLPEEAVRMASVAVQCLSFEPKSRPTMDQVVRALQQLQDNLGKPSQTNPVKDTKKLGFKTGTTKSSEKRFTQKPFGRHLV
B2: Serine/threonine-protein kinase BIK1 (Arabidopsis thaliana (Mouse-ear cress)), O48814 (parent)
chain: B1 chain
partner: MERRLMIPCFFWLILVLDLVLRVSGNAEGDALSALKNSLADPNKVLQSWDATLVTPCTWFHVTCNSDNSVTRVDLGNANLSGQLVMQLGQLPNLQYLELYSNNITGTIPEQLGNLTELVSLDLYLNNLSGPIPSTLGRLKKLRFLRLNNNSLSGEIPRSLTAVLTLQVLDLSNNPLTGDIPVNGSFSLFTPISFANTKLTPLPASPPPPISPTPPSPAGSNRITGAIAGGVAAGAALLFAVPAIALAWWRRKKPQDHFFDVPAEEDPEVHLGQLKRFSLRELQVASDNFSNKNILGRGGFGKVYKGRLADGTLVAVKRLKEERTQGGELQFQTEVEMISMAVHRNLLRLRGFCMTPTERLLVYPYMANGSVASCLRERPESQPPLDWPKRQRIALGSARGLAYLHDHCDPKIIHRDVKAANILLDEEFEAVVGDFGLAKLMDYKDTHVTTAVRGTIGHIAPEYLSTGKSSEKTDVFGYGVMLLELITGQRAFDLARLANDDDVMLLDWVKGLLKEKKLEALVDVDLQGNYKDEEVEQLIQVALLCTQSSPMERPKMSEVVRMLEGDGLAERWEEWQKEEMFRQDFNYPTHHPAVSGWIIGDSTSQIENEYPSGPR

Variants of: B1
Details: with fls2_arath FLS2, Q9FL28
Sequence of fls2_arath FLS2, Q9FL28 (Q9FL28 whole entry): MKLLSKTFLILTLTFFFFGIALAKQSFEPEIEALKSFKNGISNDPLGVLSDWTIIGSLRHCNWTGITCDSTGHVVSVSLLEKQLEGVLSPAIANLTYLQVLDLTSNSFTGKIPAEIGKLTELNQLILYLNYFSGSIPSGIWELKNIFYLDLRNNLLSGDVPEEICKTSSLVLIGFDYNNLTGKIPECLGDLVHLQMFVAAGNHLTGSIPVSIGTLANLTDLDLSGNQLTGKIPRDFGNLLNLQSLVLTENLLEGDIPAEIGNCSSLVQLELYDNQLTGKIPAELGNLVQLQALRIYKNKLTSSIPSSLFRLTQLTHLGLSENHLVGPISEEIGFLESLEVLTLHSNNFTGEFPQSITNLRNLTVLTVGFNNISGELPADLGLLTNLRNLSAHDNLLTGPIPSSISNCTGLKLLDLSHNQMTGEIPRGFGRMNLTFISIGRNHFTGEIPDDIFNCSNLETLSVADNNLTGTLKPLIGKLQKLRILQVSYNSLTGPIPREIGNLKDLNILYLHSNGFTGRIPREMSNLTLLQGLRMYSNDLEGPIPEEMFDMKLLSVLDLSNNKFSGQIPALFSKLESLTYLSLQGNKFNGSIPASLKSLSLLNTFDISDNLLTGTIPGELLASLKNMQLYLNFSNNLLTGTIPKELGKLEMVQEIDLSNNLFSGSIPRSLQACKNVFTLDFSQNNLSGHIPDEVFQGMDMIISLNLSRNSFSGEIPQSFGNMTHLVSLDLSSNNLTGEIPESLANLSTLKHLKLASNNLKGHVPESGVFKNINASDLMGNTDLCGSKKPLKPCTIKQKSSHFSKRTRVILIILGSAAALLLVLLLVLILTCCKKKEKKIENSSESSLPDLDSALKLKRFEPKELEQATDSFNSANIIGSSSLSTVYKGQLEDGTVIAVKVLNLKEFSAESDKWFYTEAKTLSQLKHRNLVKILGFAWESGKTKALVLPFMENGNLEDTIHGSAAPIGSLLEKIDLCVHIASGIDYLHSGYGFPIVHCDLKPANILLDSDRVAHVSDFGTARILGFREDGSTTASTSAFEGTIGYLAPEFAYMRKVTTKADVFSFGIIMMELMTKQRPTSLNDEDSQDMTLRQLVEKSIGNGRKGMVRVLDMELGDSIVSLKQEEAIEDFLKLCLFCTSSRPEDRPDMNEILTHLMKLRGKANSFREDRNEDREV

Which “effect of a mutation on the interaction” value does the source give for T237A here?
Its value is “disrupting interaction”.

Variants of: B2
Details: with bak1_arath BAK1, Q94F62

T237A was tested. Which “effect of a mutation on the interaction” value did it give?
Its value is “disrupting interaction”.
